Measurements: the supplement of paper PMC10567573

B1: FUT8 (parent)
chain: YAHQPRTADEIPMEPGDIIGVAGN

Variants of: B1
Experiment: protein stability index of a GFP-peptide fusion (GPS, HEK-293T) (PSI 1-6); higher = more stable
Conditions: c terminus: a fixed tail appended
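Also: lentivirally expressed fusions sorted by FACS into six bins by GFP to DsRed ratio, PSI derived from sequencing read proportions per bin multiplied by bin number.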

Row | Variant | protein stability index
1 | YAHQPRTADEIPMIPGDIIGVAGN [E14I] | 3.23
2 | YAHQPRTADEIPMQPGDIIGVAGN [E14Q] | 3.47
3 | YAHQPRTADEIPMNPGDIIGVAGN [E14N] | 3.25
4 | YAHQPRTADEIPMGPGDIIGVAGN [E14G] | 3.35
5 | YAHQPRTADEIPMHPGDIIGVAGN [E14H] | 3.5
6 | YAHQPRTADEIPMRPGDIIGVAGN [E14R] | 3.48
7 | YAHQPRTADEIPMKPGDIIGVAGN [E14K] | 3.29
8 | YAHQPRTADEIPMMPGDIIGVAGN [E14M] | 3.25
9 | YAHQPRTADEIPMTPGDIIGVAGN [E14T] | 3.9
10 | YAHQPRTADEIPMAPGDIIGVAGN [E14A] | 3.41
11 | YAHQPRTADEIPMYPGDIIGVAGN [E14Y] | 2.27
12 | YAHQPRTADEIPMLPGDIIGVAGN [E14L] | 2.88
13 | YAHQPRTADEIPMDPGDIIGVAGN [E14D] | 3.75
14 | YAHQPRTADEIPMPPGDIIGVAGN [E14P] | 3.12
15 | YAHQPRTADEIPMVPGDIIGVAGN [E14V] | 3.58
16 | YAHQPRTADEIPMWPGDIIGVAGN [E14W] | 2.1
17 | YAHQPRTADEIPMCPGDIIGVAGN [E14C] | 3.32
18 | YAHQPRTADEIPMSPGDIIGVAGN [E14S] | 3.29
19 | YAHQPRTADEIPMFPGDIIGVAGN [E14F] | 2.46
20 | YAHQPRTADERPMEPGDIIGVAGN [I11R] | 4.07
21 | YAHQPRTADEKPMEPGDIIGVAGN [I11K] | 4.27
22 | YAHQPRTADENPMEPGDIIGVAGN [I11N] | 4.26
23 | YAHQPRTADEDPMEPGDIIGVAGN [I11D] | 4.65
24 | YAHQPRTADEMPMEPGDIIGVAGN [I11M] | 4.09

Row | Variant | protein stability index
25 | YAHQPRTADELPMEPGDIIGVAGN [I11L] | 3.47
26 | YAHQPRTADEPPMEPGDIIGVAGN [I11P] | 4.12
27 | YAHQPRTADEGPMEPGDIIGVAGN [I11G] | 3.98
28 | YAHQPRTADETPMEPGDIIGVAGN [I11T] | 4.2
29 | YAHQPRTADEVPMEPGDIIGVAGN [I11V] | 4.55
30 | YAHQPRTADEYPMEPGDIIGVAGN [I11Y] | 3.93
31 | YAHQPRTADEEPMEPGDIIGVAGN [I11E] | 4.37
32 | YAHQPRTADESPMEPGDIIGVAGN [I11S] | 4.09
33 | YAHQPRTADEQPMEPGDIIGVAGN [I11Q] | 4.46
34 | YAHQPRTADEFPMEPGDIIGVAGN [I11F] | 3.71
35 | YAHQPRTADEAPMEPGDIIGVAGN [I11A] | 4.44
36 | YAHQPRTADEHPMEPGDIIGVAGN [I11H] | 4.06
37 | YAHQPRTADECPMEPGDIIGVAGN [I11C] | 4.26
38 | YAHQPRTADEWPMEPGDIIGVAGN [I11W] | 3.44
39 | YAHQPRTADSIPMEPGDIIGVAGN [E10S] | 3.74
40 | YAHQPRTADWIPMEPGDIIGVAGN [E10W] | 2.23
41 | YAHQPRTADNIPMEPGDIIGVAGN [E10N] | 3.73
42 | YAHQPRTADVIPMEPGDIIGVAGN [E10V] | 3.37
43 | YAHQPRTADLIPMEPGDIIGVAGN [E10L] | 3.56
44 | YAHQPRTADYIPMEPGDIIGVAGN [E10Y] | 3.06
45 | YAHQPRTADRIPMEPGDIIGVAGN [E10R] | 2.96
46 | YAHQPRTADQIPMEPGDIIGVAGN [E10Q] | 3.08
47 | YAHQPRTADTIPMEPGDIIGVAGN [E10T] | 3.66
48 | YAHQPRTADPIPMEPGDIIGVAGN [E10P] | 3.66

Row | Variant | protein stability index
49 | YAHQPRTADMIPMEPGDIIGVAGN [E10M] | 3.44
50 | YAHQPRTADEIPEEPGDIIGVAGN [M13E] | 4.73
51 | YAHQPRTADEIPYEPGDIIGVAGN [M13Y] | 4.12
52 | YAHQPRTADEIPGEPGDIIGVAGN [M13G] | 4.52
53 | YAHQPRTADEIPQEPGDIIGVAGN [M13Q] | 4.71
54 | YAHQPRTADEIPPEPGDIIGVAGN [M13P] | 4.18
55 | YAHQPRTADEIPCEPGDIIGVAGN [M13C] | 3.9
56 | YAHQPRTADEIPLEPGDIIGVAGN [M13L] | 4.1
57 | YAHQPRTADEIPFEPGDIIGVAGN [M13F] | 3.43
58 | YAHQPRTADEIPVEPGDIIGVAGN [M13V] | 4.68
59 | YAHQPRTADEIPSEPGDIIGVAGN [M13S] | 4.07
60 | YAHQPRTADEIPNEPGDIIGVAGN [M13N] | 4.46
61 | YAHQPRTADEIPDEPGDIIGVAGN [M13D] | 4.82
62 | YAHQPRTADEIPREPGDIIGVAGN [M13R] | 4.43
63 | YAHQPRTADEIPTEPGDIIGVAGN [M13T] | 4.34
64 | YAHQPRTADEIPHEPGDIIGVAGN [M13H] | 4.33
65 | YAHQPRTADEIPWEPGDIIGVAGN [M13W] | 3.08
66 | YAHQPRTADEIPKEPGDIIGVAGN [M13K] | 3.95
67 | YAHQPRTADEIPAEPGDIIGVAGN [M13A] | 4.69
68 | YAHQPRTADEIPIEPGDIIGVAGN [M13I] | 3.87
69 | YAHQPRTADEIPMEGGDIIGVAGN [P15G] | 4.16
70 | YAHQPRTADEIPMEHGDIIGVAGN [P15H] | 3.86
71 | YAHQPRTADEIPMEEGDIIGVAGN [P15E] | 4.57
72 | YAHQPRTADEIPMEAGDIIGVAGN [P15A] | 4.38

Row | Variant | protein stability index
73 | YAHQPRTADEIPMEFGDIIGVAGN [P15F] | 3.52
74 | YAHQPRTADEIPMECGDIIGVAGN [P15C] | 3.58
75 | YAHQPRTADEIPMEDGDIIGVAGN [P15D] | 4.32
76 | YAHQPRTADEIFMEPGDIIGVAGN [P12F] | 3.27
77 | YAHQPRTADEIVMEPGDIIGVAGN [P12V] | 3.72
78 | YAHQPRTADEIDMEPGDIIGVAGN [P12D] | 4.2
79 | YAHQPRTADEICMEPGDIIGVAGN [P12C] | 3.48
80 | YAHQPRTADEILMEPGDIIGVAGN [P12L] | 3.57
81 | YAHQPRTADEITMEPGDIIGVAGN [P12T] | 4.09
82 | YAHQPRTADEISMEPGDIIGVAGN [P12S] | 4.08
83 | YAHQPRTADEIIMEPGDIIGVAGN [P12I] | 3.27
84 | YAHQPRTADEINMEPGDIIGVAGN [P12N] | 3.73
85 | YAHQPRTADEIKMEPGDIIGVAGN [P12K] | 3.96
86 | YAHQPRTADEIQMEPGDIIGVAGN [P12Q] | 4.47
87 | YAHQPRTADEIMMEPGDIIGVAGN [P12M] | 3.58
88 | YAHQPRTADEIGMEPGDIIGVAGN [P12G] | 3.6
89 | YAHQPRTADEIHMEPGDIIGVAGN [P12H] | 3.41
90 | YAHQPRTADEIYMEPGDIIGVAGN [P12Y] | 3.21
91 | YAHQPRTADEIWMEPGDIIGVAGN [P12W] | 2.4
92 | YAHQPRTADEIRMEPGDIIGVAGN [P12R] | 3.28
93 | YAHQPRTADEIEMEPGDIIGVAGN [P12E] | 4.2
94 | YAHQPRTADEIAMEPGDIIGVAGN [P12A] | 4.23
